Data from the NTF2 design screens of Basanta et al. (2020).

Experiment: protease stability score; higher = more stable; yeast display proteolysis, trypsin and chymotrypsin;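 note: relative to predicted unfolded state with 0 unfolded-like and 1 meaning tenfold more protease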

## SHWEEDARRFNEIFITHFMTGDWHHLERMLDPHTRAHINGVNTVGREEVSRLVTELFEELGAKHHRIHDFRIQGDKVDTHHHLDVNGRNNHFIIHVKKINGKWRVESIEMTVI
  protease stability score: 1.22

## SKDDEIIHTLIRFIVHILQTGNEEESHRMADPNAKSNINGVEVHGREEFVDLWVEWMERLGHDRVHSRLRHVNIQGDKAIMHIELDVNGKEFNLIVFIRKVNGRWYLEEMTID
  protease stability score: 2.11

## SKDEDDMRRWAEILIQDFITGDEDRMNHLLDPNTRVQVNGVQDHGMEALEKLFEILGFKHIDIKDLHIKLIGDKVEQDVVLRLNVNGKERKVKVHNFAEKVDGRWFVESITVHVR
  protease stability score: 1.02

## SKDEEDAEEFFEKWLRYSRTGDEKSMEELMDPNTKIDFNGKEIHGREEVLRFLIELRVHHIEIKRISSINGKLHIDGRFDIIYGDKRIDTRTVLEIDKINGRWHLHTVRFV
  protease stability score: 2.12

## SKDEKTLSHFIKFLEDVEKTGNFEDFYELMDPDAKLVVNGVEHHGRDEFTRFIKEFMDRVDHIHYTDVHHIILQGDKVIIDAKVRGVWDGVERELRVKIIIVKINGRWYLKSFEEE
  protease stability score: 1.87

## SKEDEDFNERTREWLEILETGDWRKLARLLDPNVLNIVGDKEHHGREEVIKSFRTYLEKVPNMRFTTRRIRLQGDKVDLDGDLYFNGKEIKVRIFLVIYDGRVHSMEVREE
  protease stability score: 1.09

## SKEDRDAKWAFEHLMHLLHTGDEEKINENLDPNARNEFDGRELHGREIITEILRNLGIKHLHIHSVEFISQGDKLFSNVDGNNIFDGREVHTHLHFIIEKFNGKWNIKSIHIKIT
  protease stability score: 1.19

## SKEEDMMRKIVEDFSRAQWTGDEKKVDELLDPNTRSDINGVHIVGMEEYLRVMKHRGVEFKHSEIKDVNLQGDKATWDGIDHVNFNGKDIELQVHIYLRKINGRWSIHTLKVQ
  protease stability score: 0.386

## SKEEEDARFMMHLWEHVLRTGDEDVLHKLADPDVKIIIGDKEHVGREELIDIFRERLKEWRIHDFHIRRVHVINGKVHVDGETDGTINGRRIIFRIEIHLVIVDGRIKEVEEDME
  protease stability score: 1.87

## SKEEEDTERITRLILEYLLTGDEDVFNHLADPNVRLVIDGRLVHGRERASRIMVESYEKFGADHREVRMHSVRDVDGRIHSDIKVHVHIGDKRQNLSHEVYSTKYDGRWIIKSVILT
  protease stability score: 0.245

## SKEEEHAYRVMEIILKQHLTGDEEEISRLLDPHVKMDVDGVILHGRENASRWLFEWIRFFKGLRLHIHIEDIQVQGEKSHHHTRLHITINGRTQNYRFKVHAVVVNGQIKHFELDWD
  protease stability score: 1.39

## SKEEHDAKYIAMLVVENLLTGDWERLFRYLDPHARMEFKVGDKHIETHGWKEIKETLDELITEWRTDDMKVRDIKVYGDKVDVEGEMRGDINGRIRTIEVRIEVIVVNGRLKDISFEVK
  protease stability score: 1.95

## SKEEHETHRMIEHILKIVKTGDEENIHKNLDPHVRVNVNGRNLHGREEFVRVMYQWWHEAGVDHVHLTDFEIQGDKAHIHIDEHFNGKRHHIEIIAQKVNGKWLMREVIID
  protease stability score: 1.39

## SKEEKDYWEFAEIWISDLLTGDEDLRKHLHDPDVRYHYHQGDKTFETHGMEEVLKLDKDLWRRLGVKHLEIHRVEVQGDKIHLDARLQVGDKSTEVHILLIVVNGKVKHIHIFVH
  protease stability score: 1.2

## SKEEKETEKAMEESLHIFETGDWKAFHDNVDPNVRLHIGDKDSHGRERATELYLTVVHHLGINHIQIDSFQINIQGDKVVINIDGTSHVGDKWSRIRVHIVERKIDGRWLISSFKMHIE
  protease stability score: 1.07

## SKEETWVKEAYELMTRTIRTGDERLMHELLDPHVRTVINGQESHGREVVLRFLEHIRYEEVTPTHIRIIGDWIDVDIRIHGHFDGRRYELRSTLFMRKVDGKWDLTEIRII
  protease stability score: 0.709

## SKHKEQTEHVMKTWEHAMRTGDEDRVSHLLDPNVRFEVGNKEFHGREEMSRHIVEMRFTELRLRDVETQGDKVHFEGEMRGIIDGKEETNKLIVIIYKVNGRWHIRSVHVE
  protease stability score: 0.618

## SKISEFVKMLLEIEVHAHETGDWRHYQEMMDPHVKFELNIGNFHTLDHGRDRLIDWIEHHIKRADHLHVHIREVHVIGDKVSVRGELKTNVNGVDLEYEILQIIIVVDGRFKSIQHSYL
  protease stability score: 0.155

## SKLEEDAHKMLDKILHNIRTGDEESEHRLADPEVKFHIGDKTFHGMSLVSKLLLHLRIRTERIENVNIRVINGVAEVEMRGVRDGEFNGVRVQVTVEEHFIIDKINGRWIIREIHVHII
  protease stability score: 1.29

## SKLEEDTRRAVEHFLKNIHTGDEHELTKMLDPNVRLDFDGREYHGREEVVHYLFRIMHEFGADHSEVKHWHVQGDFMQVDTRLHVGDKFFETELYMHKINGRWYVKHIIIR
  protease stability score: 2.13

## SKREDKWKHHVEVLIRLWQTGDEDTLKELFDPNVLLLVIYNGRNIHNHGRELAMHWLRYLLEHLGIDHYHIESSSVIGDKVEIKSRVYIGDKTYELDLEIRIIDGRLKSLNVNIE
  protease stability score: 0.8

## SLEEHAFRLALHLLENMWLTGDEELFERLLDPHARLEFENHKYHGRDIVSEFMRRIKNLTFHRIIFRNRDVQGEKVSFIMETDVEWNGKRHIEHTHITVHKINGVWLIHEVDIR
  protease stability score: 1.42

## SMEEMSELYIKWWMTGDWDKLTNNADPHTRVNVGNFESVGMEHLIELMLRHVKHFGINHSILRSHDTQGDKVHVDGELHVNGRTARIVLHLEIVNGRIKSESVESRSEVFEEHLHKVLR
  protease stability score: 0.635

## SNEDEIAQHLVRLILNAHLTGDEKLLETLADPTMRFTLRIGDKQHERHGREEWIKWVRHTIERIDHIEIRIDDRRIQGDKIEIDGTLRLEIGDKVNQVRVDIIIHLVNGRLKEVIIEVV
  protease stability score: 2.06

## SNEQKEFELLLRLMKEIIETGDEENFHRMVDPHARLQVGDKHHHGREEMSRWFEEFTKRFKNAKVHIDHVDSVDGQLHIDTTLIFDGVERRVEIIVRKVDGKWILEEVRII
  protease stability score: 1.08

## SQDERDVKKFVDLYERTVETGNEEDMERLMDPHVRMEVGDKHEHGRHIVIRVLHELGADHVDIHHVNVQGEKIHIHGRLHVDGRIHHVEIHAKKVNGKWIMKLVIIR
  protease stability score: 1.11

## SQDKETSDEAFRIWVESYETGNEHLEEHMVDPNARSRVGDKELIGMEHFIKIMEKIKNATLEIRHRSYTEIDGRLRWHTQLYIEYGDKRIEREIIIIVHKVNGRWSIEHFEVR
  protease stability score: 0.973

## SQEEEIVLHISQRLLRALSTGNEKEFEELLDPNARVSEIQGDKSYSHHGREEFLIFMREWFEKMGIKHFHIEHIDVQGNWVRVRGRITFNGREHDVNILILVIDGRVRSFTIEIK
  protease stability score: 1.57

## SQEEKEIRDWLHILANARLTGDEDWLLKQADPNTRLEFNGVDLVGMEHNIKFLLHLERQHGMRLHNIHIHHVEVQGDKVESDIREDGEVNGRRMIFTSIIIVRKVNGRWILRSFHLH
  protease stability score: 1.21

## SQEEQDTEEFLRHLHEALRTGDEKTLRTLIDPHVRLFINGVHLHGREELVRWLKEFVDRLGIDVSTLHIDDMRIIGNFIELDTKIRWKIGDKTEEVETRFIIVKIDGRWYVRQVEMG
  protease stability score: 2.6

## SQEERELHRALKELFDRFITGDWDKLQKLLDPEVRLNINGQEIHGREEVWKRKIEEFEKFGIDHIKFHLEHERRQGDKIELDGRLEIRVGDKRLEHEVRIVFLKIDGKWILRSEEIN
  protease stability score: 1.47

## SQEERTHRELLRLLLESLTTGDEDTLRHLMDPHMIIRIGDKHFHGWDWIVHLFRKLGADHMEVEIRDEDIIDGRIRHHGSLHIHVDGRTEHIETILFVEKVNGRWVIRSVEFR
  protease stability score: 1.64

## SQIEEDIRRQLKRFNDALTTGDEDEIMNLFDPDVRWIQGNYEHHGREFYLEMFREWRTHSIRIDIDRMEIQGDKVTLHTRFTVDGEFNGRRITEQYELVFIARKIDGRWVFREVRIK
  protease stability score: 2.4

## SQLEVASTEALELLRFSLETGDWEFLLRLADPNTRIEINGVTFHGREDMEEIMEEKFRRFKNVKVELDVKEVHFQGDKVRIRVVEFWKVDGQEIFIDSRIVMIKVNGRWVYKELRVH
  protease stability score: 0.7

## SRAEEEARHLLHLLIHSLNTGDEDTSRKMLDPHVRLIIDGREHHGREDLLWFLRFLGFDHVHHVELHDLHDVNGRIKVDVKFHMFVGDKLIKTTVIYFILKINGRWVFESIKVE
  protease stability score: 1.23

## SREDELREEFLRRILEVLRTGDFDEWKKYLDPDTRNDINGVDWVGRETAAHELERMYRHIRIKDTKVHDVRVQGDKVHIDVRVLIEFDGRERILETHIVVEKVDGRWHLKHVRFN
  protease stability score: 1.62
